From patent US5237051A (Vanderbilt University, priority 1990, dated 1993)

Molecular target: T1, GC-C (Rattus norvegicus, UniProt P23897)
T1 construct: expressed in transfected cells; host or cells: COS-7
T1 sequence (P23897 23-1072): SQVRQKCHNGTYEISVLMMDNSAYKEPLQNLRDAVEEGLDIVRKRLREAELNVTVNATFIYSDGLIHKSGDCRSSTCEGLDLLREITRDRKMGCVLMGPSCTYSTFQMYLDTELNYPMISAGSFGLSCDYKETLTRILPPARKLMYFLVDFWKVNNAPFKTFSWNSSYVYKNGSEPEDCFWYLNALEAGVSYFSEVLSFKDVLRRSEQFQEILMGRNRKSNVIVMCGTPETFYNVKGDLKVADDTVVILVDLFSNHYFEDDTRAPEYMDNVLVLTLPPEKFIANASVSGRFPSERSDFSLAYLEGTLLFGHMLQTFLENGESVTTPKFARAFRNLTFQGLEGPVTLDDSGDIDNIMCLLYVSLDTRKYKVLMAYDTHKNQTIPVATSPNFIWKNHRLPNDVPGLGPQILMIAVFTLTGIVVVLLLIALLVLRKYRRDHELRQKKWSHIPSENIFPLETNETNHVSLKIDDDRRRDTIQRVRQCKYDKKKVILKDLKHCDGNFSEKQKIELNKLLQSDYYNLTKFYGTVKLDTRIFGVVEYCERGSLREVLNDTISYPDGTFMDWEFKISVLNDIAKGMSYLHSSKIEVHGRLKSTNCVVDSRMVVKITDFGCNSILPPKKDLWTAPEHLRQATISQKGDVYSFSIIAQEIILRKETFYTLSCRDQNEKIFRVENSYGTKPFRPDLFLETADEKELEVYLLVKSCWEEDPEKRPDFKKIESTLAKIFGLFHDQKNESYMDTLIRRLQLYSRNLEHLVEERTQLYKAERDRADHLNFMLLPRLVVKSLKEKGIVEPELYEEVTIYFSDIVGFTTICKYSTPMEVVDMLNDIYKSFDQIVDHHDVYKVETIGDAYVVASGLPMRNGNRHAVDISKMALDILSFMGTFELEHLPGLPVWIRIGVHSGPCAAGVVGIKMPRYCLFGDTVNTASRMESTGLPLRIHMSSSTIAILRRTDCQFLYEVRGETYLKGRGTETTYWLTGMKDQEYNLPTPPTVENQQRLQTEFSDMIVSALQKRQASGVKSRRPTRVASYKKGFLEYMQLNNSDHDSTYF
Format: cell-based

| Substance | cyclic GMP levels after stimulation of transfected cells (in words) | stimulation of GC-C (in words) |
| --- | --- | --- |
| atrial natriuretic peptide | did not increase cyclic GMP levels above background | failed to stimulate |
| C-type natriuretic peptide | did not increase cyclic GMP levels above background | failed to stimulate |
| brain natriuretic peptide | did not increase cyclic GMP levels above background | failed to stimulate |
